Results as given in paper PMC4577212, “X-Ray Structure and Mutagenesis Studies of the N-Isopropylammelide Isopropylaminohydrolase, AtzC” (PLoS ONE, 2015).

Assays:
Nc1nc(O)nc(O)n1 [1] = assay: purified protein; conditions: 200 mM sodium phosphate pH 7.5, glycerol, 301 K, 28.0 °C
Nc1nc(O)nc(O)n1 [2] = tested on: T1, Nc1nc(O)nc(O)n1; assay: purified protein; assay type: biochemical, Pseudomonas sp. ADP; conditions: 200 mM sodium phosphate pH 7.5, glycerol, 301 K, 28.0 °C
T1 construct: full length, N-terminal His-tag (pETCC2, from pET14b), expressed in E. coli BL21(DE3); tag cut with thrombin for crystals; homotetramer ~210 kDa; Zn enzyme

Row | Substance | Km (Nc1nc(O)nc(O)n1 [1]) | Km (Nc1nc(O)nc(O)n1 [2]) | kcat (Nc1nc(O)nc(O)n1 [2]) | kcat/Km (Nc1nc(O)nc(O)n1 [2])
1 | AtzC (N-isopropylammelide isopropylaminohydrolase) (Pseudomonas sp. ADP; D188N) | 1900 ± 500 µM | – | – | –
2 | AtzC (N-isopropylammelide isopropylaminohydrolase) (Pseudomonas sp. ADP; K65R) | – | 2400 ± 300 µM | 332 ± 34.3 s⁻¹ | 140000 M⁻¹ s⁻¹
3 | AtzC (N-isopropylammelide isopropylaminohydrolase) (Pseudomonas sp. ADP; N304A) | – | 4200 ± 200 µM | 29.3 ± 1.7 s⁻¹ | 7000 M⁻¹ s⁻¹
4 | AtzC (N-isopropylammelide isopropylaminohydrolase) (Pseudomonas sp. ADP; D188A) | – | 2200 ± 200 µM | 106 ± 11.4 s⁻¹ | 49000 M⁻¹ s⁻¹
5 | AtzC (N-isopropylammelide isopropylaminohydrolase) (Pseudomonas sp. ADP; D303N) | – | 6100 ± 600 µM | 90.4 ± 8.9 s⁻¹ | 15000 M⁻¹ s⁻¹
6 | AtzC (N-isopropylammelide isopropylaminohydrolase) (Pseudomonas sp. ADP; N304D) | – | 25000 ± 4500 µM | 189 ± 34 s⁻¹ | 7600 M⁻¹ s⁻¹
7 | AtzC (N-isopropylammelide isopropylaminohydrolase) (Pseudomonas sp. ADP; H219A) | – | 1600 ± 400 µM | 16.8 ± 4 s⁻¹ | 11000 M⁻¹ s⁻¹
8 | AtzC (N-isopropylammelide isopropylaminohydrolase) (Pseudomonas sp. ADP; K65A) | – | 6100 ± 600 µM | 778 ± 79.7 s⁻¹ | 130000 M⁻¹ s⁻¹
9 | AtzC (N-isopropylammelide isopropylaminohydrolase) (Pseudomonas sp. ADP; Q160A) | – | 1800 ± 300 µM | 23 ± 3.5 s⁻¹ | 13000 M⁻¹ s⁻¹
10 | AtzC (N-isopropylammelide isopropylaminohydrolase) (Pseudomonas sp. ADP; Q160E) | – | 1300 ± 100 µM | 10.4 ± 0.5 s⁻¹ | 8100 M⁻¹ s⁻¹
